In publication PMC3094545 (Structure (London, England : 1993), 2011):

Target: the molecule itself
Experiment: crystal structure

B1: cytoplasmic domain of ZntB from Salmonella enterica serovar Typhimurium (domain or fragment)
chain: MEAIKGSDVNVPDAVFAWLLDGRGGVKPLEDNDVIDSQHPCWLHLNYTHPDSARWLASTPLLPNNVRDALAGESSRPRVSRMGEGTLITLRCINGSTDERPDQLVAMRLYMDERFIVSTRQRKVLALDDVVSDLQEGTGPVDCGGWLVDVCDALTDHASEFIEELHDKIIDLEDNLLDQQIPPRGFLALLRKQLIVMRRYMAPQRDVYARLASERLPWMSDDHRRRMQDIADRLGRGLDEIDACIARTGIMADEIAQVMQES
  stoichiometry N: 5
